Test results taken from patent publication US20080176247A1 (INDUSTRIAL TECHNOLOGY RESEARCH INSTITUTE, published 2008).
Blank lines part the entries; values can stand above or below the binder they belong to.

Target: T1, purified recombinant extracellular domain of EGF receptor (EGFR-ECD; Research Diagnostics, Inc.) (UniProt P00533 25-645, limits assumed)
T1 construct: extracellular domain; Bought protein
Assay: SPR (BIAcore X), EGFR-ECD immobilized on C1 chip, 1:1 Langmuir fit
Procedure: Each antibody was injected at indicated concentrations and flowed over a surface chip with immobilized EGFR extracellular domain at a flow rate of 10 μl/min.
The surface was regenerated by injection of 5 μl of 10 mM glycine-HCl, pH 3.5. Sensorgrams were obtained at each concentration and were evaluated using the program, BIA Evaluation 3.2. Binding data were titled with a 1:1 Langmuir binding model to calculate the equilibrium dissociation constant, KD, which was defined as the ratio of dissociation rate (koff)/association rate (kₒₙ).

Kd: 4960 nM
koff: 0.0741 s⁻¹
kon: 15000 M⁻¹ s⁻¹
B1: erb_scFv (scFv, not shown: small tags and cut ends)
scFv: MAEVQLLESGGGLVQPGGSLRLSCAASGFTFSSYAMSWVRQAPGKGLEWVSDIGASGSATSYADSVKGRFTISRDNSKNTLYLQMNSLRAEDTAVYYCAKSTTTFDYWGQGTLVTVSSGGGGSGGGGSGGGGSTDIQMTQSPSSLSASVGDRVTITCRASQSISSYLNWYQQKPGKAPKLLIYDASALQSGVPSRFSGSGSGTDFTLTISSLQPEDFATYYCQQYADYPTTFGQGTKVEIKR
notes: Made in NS0 cells for the SPR work

Kd: 104 nM
koff: 0.00944 s⁻¹
kon: 90900 M⁻¹ s⁻¹
B2: erb_scFv-Fc (Fc fusion)
chain: B1 scFv
notes: not shown: Fc region
